Experimental data reported in patent US9618524B2, “Method, composition, isolation and identification of a plaque particle and related biomarker” (Plaxgen Inc., priority 2012, dated 2017).

B1: Carboxypeptidase N subunit 2 (protein)
chain: CPMGCDCFVQEVFCSDEELATVPLDIPPYTKNIIFVETSFTTLETRAFGSNPNLTKVVFLNTQLCQFRPDAFGGLPRLEDLEVTGSSFLNLSTNIFSNLTSLGKLTLNFNMLEALPEGLFQHLAALESLHLQGNQLQALPRRLFQPLTHLKTLNLAQNLLAQLPEELFHPLTSLQTLKLSNNALSGLPQGVFGKLGSLQELFLDSNNISELPPQVFSQLFCLERLWLQRNAITHLPLSIFASLGNLTFLSLQWNMLRVLPAGLFAHTPCLVGLSLTHNQLETVAEGTFAHLSNLRSLMLSYNAITHLPAGIFRDLEELVKLYLGSNNLTALHPALFQNLSKLELLSLSKNQLTTLPEGIFDTNYNLFNLALHGNPWQCDCHLAYLFNWLQQYTDRLLNIQTYCAGPAYLKGQVVPALNEKQLVCPVTRDHLGFQVTWPDESKAGGSWDLAVQERAARSQCTYSNPEGTVVLACDQAQCRWLNVQLSPQQGSLGLQYNASQEWDLRSSCGSLRLTVSIEARAAGP
B2: Kallistatin (protein)
chain: QLHVEHDGESCSNSSHQQILETGEGSPSLKIAPANADFAFRFYYLIASETPGKNIFFSPLSISAAYAMLSLGACSHSRSQILEGLGFNLTELSESDVHRGFQHLLHTLNLPGHGLETRVGSALFLSHNLKFLAKFLNDTMAVYEAKLFHTNFYDTVGTIQLINDHVKKETRGKIVDLVSELKKDVLMVLVNYIYFKALWEKPFISSRTTPKDFYVDENTTVRVPMMLQDQEHHWYLHDRYLPCSVLRMDYKGDATVFFILPNQGKMREIEEVLTPEMLMRWNNLLRKRNFYKKLELHLPKFSISGSYVLDQILPRLGFTDLFSKWADLSGITKQQKLEASKSFHKATLDVDEAGTEAAAATSFAIKFFSAQTNRHILRFNRPFLVVIFSTSTQSVLFLGKVVDPTKP
B3: Isoform 2 of Apolipoprotein L1 (protein)
chain: EEAGARVQQNVPSGTDTGDPQSKPLGDWAAGTMDPESSIFIEDAIKYFKEKVSTQNLLLLLTDNEAWNGFVAAAELPRNEADELRKALDNLARQMIMKDKNWHDKGQQYRNWFLKEFPRLKSELEDNIRRLRALADGVQKVHKGTTIANVVSGSLSISSGILTLVGMGLAPFTEGGSLVLLEPGMELGITAALTGITSSTMDYGKKWWTQAQAHDLVIKSLDKLKEVREFLGENISNFLSLAGNTYQLTRGIGKDIRALRRARANLQSVPHASASRPRVTEPISAESGEQVERVNEPSILEMSRGVKLTDVAPVSFFLVLDVVYLVYESKHLHEGAKSETAEELKKVAQELEEKLNILNNNYKILQADQEL
B4: Corticosteroid-binding globulin (protein)
chain: MDPNAAYVNMSNHHRGLASANVDFAFSLYKHLVALSPKKNIFISPVSISMALAMLSLGTCGHTRAQLLQGLGFNLTERSETEIHQGFQHLHQLFAKSDTSLEMTMGNALFLDGSLELLESFSADIKHYYESEVLAMNFQDWATASRQINSYVKNKTQGKIVDLFSGLDSPAILVLVNYIFFKGTWTQPFDLASTREENFYVDETTVVKVPMMLQSSTISYLHDSELPCQLVQMNYVGNGTVFFILPDKGKMNTVIAALSRDTINRWSAGLTSSQVDLYIPKVTISGVYDLGDVLEEMGIADLFTNQANFSRITQDAQLKSSKVVHKAVLQLNEEGVDTAGSTGVTLNLTSKPIILRFNQPFIIMIFDHFTWSSLFLARVMNPV
B5: Pigment epithelium-derived factor (protein)
chain: QNPASPPEEGSPDPDSTGALVEEEDPFFKVPVNKLAAAVSNFGYDLYRVRSSTSPTTNVLLSPLSVATALSALSLGAEQRTESIIHRALYYDLISSPDIHGTYKELLDTVTAPQKNLKSASRIVFEKKLRIKSSFVAPLEKSYGTRPRVLTGNPRLDLQEINNWVQAQMKGKLARSTKEIPDEISILLLGVAHFKGQWVTKFDSRKTSLEDFYLDEERTVRVPMMSDPKAVLRYGLDSDLSCKIAQLPLTGSMSIIFFLPLKVTQNLTLIEESLTSEFIHDIDRELKTVQAVLTVPKLKLSYEGEVTKSLQEMKLQSLFDSPDFSKITGKPIKLTQVEHRAGFEWNEDGAGTTPSPGLQPAHLTFPLDYHLNQPFIFVLRDTDTGALLFIGKILDPRGP
B6: Insulin-like growth factor-binding protein complex (protein)
chain: ADPGTPGEAEGPACPAACVCSYDDDADELSVFCSSRNLTRLPDGVPGGTQALWLDGNNLSSVPPAAFQNLSSLGFLNLQGGQLGSLEPQALLGLENLCHLHLERNQLRSLALGTFAHTPALASLGLSNNRLSRLEDGLFEGLGSLWDLNLGWNSLAVLPDAAFRGLGSLRELVLAGNRLAYLQPALFSGLAELRELDLSRNALRAIKANVFVQLPRLQKLYLDRNLIAAVAPGAFLGLKALRWLDLSHNRVAGLLEDTFPGLLGLRVLRLSHNAIASLRPRTFKDLHFLEELQLGHNRIRQLAERSFEGLGQLEVLTLDHNQLQEVKAGAFLGLTNVAVMNLSGNCLRNLPEQVFRGLGKLHSLHLEGSCLGRIRPHTFTGLSGLRRLFLKDNGLVGIEEQSLWGLAELLELDLTSNQLTHLPHRLFQGLGKLEYLLLSRNRLAELPADALGPLQRAFWLDVSHNRLEALPNSLLAPLGRLRYLSLRNNSLRTFTPQPPGLERLWLEGNPWDCGCPLKALRDFALQNPSAVPRFVQAICEGDDCQPPAYTYNNITCASPPEVVGLDLRDLSEAHFAPC

Legend:
Test in all cases: Mass spectroscopy proteomics, semi-quantitative binding affinity of serum proteins (plaqueproteome, Table 2)
Settings in all cases: higher number = stronger affinity
[1] = biological target: T1, alpha-synuclein plaque particles (Homo sapiens, UniProt P37840)
T1 construct: 140 amino acids polypeptide
In short: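 AD-subject plasma or serum (800 μL of 50%) mixed with 30 μg preformed alpha-synuclein aggregates for 1 h at 37 °C; Thioflavin S-positive particles isolated by flow sorting. After reduction, acrylamide alkylation and overnight tryptic digestion, serum proteins identified by MS/MS with Sequest and Scaffold.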

[2] = biological target: T2, Abeta-42 plaque particles (Homo sapiens, UniProt P05067)
T2 construct: Abeta 1-42
In short: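 AD patient serum or plasma (50% in PBS) was incubated with Abeta-42 aggregates (30 μg) for 1 h at 37 °C, then stained with Thioflavin S for 30 min. Labeled particles were FACS-sorted, trypsin/Lys-C digested overnight and analyzed by MS/MS. Sequest searched human UniProt; Scaffold/Protein Prophet validated the identifications.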

[3] = tested on: Low density cholesterol (Chl small) plaque particles; set-up: species or system human
In short: (§1)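 Serum or plasma from atherosclerotic subjects, diluted to 50% in PBS, was incubated with cholesterol aggregates (30 μg per 1 mL reaction) at 37° C for 1 hr. Small and large cholesterol plaque particles were sorted by flow cytometry gating, trypsin-digested and analysed by MS/MS against a human UniProt database.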

[4] = tested on: High Density cholesterol (Chl Large) plaque particles; set-up: species or system human
In short: as §1

[5] = tested on: Tau plaque particles; set-up: species or system human
In short: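 Synthetic Tau-74 and Tau-275 peptides (1 mg/mL PBS, 37° C, 2 h) aggregated; 30 μg aggregates incubated with 50% serum/plasma 1 h at 37° C, stained with Thioflavin S, and plaque particles sorted by flow cytometry. Bound proteins trypsin-digested and identified by MS/MS against human UniProt.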

| Molecule | Semi-quantitative analysis of proteins binding to different plaque particles: Synuclein [1] | Semi-quantitative analysis of proteins binding to different plaque particles: Abeta-42 [2] | Semi-quantitative analysis of proteins binding to different plaque particles: Chl small [3] | Semi-quantitative analysis of proteins binding to different plaque particles: Chl Large [4] | Semi-quantitative analysis of proteins binding to different plaque particles: Tau [5] |
| --- | --- | --- | --- | --- | --- |
| B1 | 2 | 0 | 1 | 0 | 1 |
| B2 | 0 | 0 | 0 | 1 | 1 |
| B3 | 0 | 0 | 1 | 1 | 2 |
| B4 | 1 | 0 | 3 | 2 | 1 |
| B5 | 4 | 5 | 3 | 4 | 4 |
| B6 | 0 | 0 | 1 | 1 | 1 |
